T1: human ST2L extracellular domain with C-terminal His6 tag (human, UniProt Q01638 19-328)
T1 construct: also called huST2L-ECD; ST2L-ECD
T1 sequence: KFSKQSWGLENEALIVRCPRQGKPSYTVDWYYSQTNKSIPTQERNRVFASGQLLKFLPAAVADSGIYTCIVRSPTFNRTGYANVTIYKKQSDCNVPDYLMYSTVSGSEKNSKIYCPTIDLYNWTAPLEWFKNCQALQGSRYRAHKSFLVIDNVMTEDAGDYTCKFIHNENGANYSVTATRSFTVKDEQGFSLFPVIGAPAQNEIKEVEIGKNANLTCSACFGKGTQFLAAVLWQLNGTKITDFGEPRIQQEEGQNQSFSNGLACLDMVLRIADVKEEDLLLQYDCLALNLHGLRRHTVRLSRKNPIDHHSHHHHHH

T2: cynomolgus (Macaca fascicularis) ST2L extracellular domain with C-terminal His6 tag (Macaca fascicularis (cynomolgus), UniProt Q01638 19-321 (human entry))
T2 construct: also called cyno ST2L-ECD; cynoST2L-ECD
T2 chain: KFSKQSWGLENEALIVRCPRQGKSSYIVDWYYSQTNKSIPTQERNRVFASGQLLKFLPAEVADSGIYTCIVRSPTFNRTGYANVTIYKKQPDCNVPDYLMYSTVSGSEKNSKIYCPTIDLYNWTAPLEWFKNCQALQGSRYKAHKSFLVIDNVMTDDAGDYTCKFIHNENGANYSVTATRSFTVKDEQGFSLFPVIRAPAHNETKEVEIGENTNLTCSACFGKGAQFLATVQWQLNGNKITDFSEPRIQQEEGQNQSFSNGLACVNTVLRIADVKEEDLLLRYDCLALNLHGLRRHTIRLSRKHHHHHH

T3: mouse ST2L extracellular domain (mouse, UniProt P14719 28-326)
T3 construct: also called mouse ST2L-ECD; muST2L-ECD
T3 sequence: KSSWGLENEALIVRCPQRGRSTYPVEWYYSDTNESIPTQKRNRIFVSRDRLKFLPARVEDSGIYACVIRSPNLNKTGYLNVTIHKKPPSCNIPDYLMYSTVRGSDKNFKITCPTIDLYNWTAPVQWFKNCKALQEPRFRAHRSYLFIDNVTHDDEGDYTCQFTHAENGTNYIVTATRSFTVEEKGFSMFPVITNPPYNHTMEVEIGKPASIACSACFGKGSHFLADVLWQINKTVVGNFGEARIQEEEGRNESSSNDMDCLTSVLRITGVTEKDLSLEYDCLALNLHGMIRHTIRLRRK

T4: human ST2L, full length, on cells (human, UniProt Q01638 19-556)
T4 sequence: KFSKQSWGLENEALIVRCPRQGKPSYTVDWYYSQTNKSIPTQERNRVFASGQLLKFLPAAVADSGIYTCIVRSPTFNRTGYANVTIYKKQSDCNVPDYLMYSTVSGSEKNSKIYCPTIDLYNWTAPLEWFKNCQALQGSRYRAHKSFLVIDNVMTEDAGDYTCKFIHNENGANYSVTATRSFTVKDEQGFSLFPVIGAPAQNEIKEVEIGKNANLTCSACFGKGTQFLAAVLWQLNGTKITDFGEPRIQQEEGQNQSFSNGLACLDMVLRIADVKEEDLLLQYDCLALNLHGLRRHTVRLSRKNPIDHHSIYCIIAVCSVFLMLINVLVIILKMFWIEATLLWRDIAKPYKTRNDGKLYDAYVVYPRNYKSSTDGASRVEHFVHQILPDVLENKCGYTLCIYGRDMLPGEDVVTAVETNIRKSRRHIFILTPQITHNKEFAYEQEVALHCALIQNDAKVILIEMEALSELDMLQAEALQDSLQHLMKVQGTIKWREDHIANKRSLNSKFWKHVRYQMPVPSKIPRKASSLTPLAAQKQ


Tests used:
[1] = biological target: T1, human ST2L extracellular domain with …; assay: assayed for binding to human ST2L, method not detailed
[2] = biological target: T2, cynomolgus (Macaca fascicularis) ST2L …; assay: SPR, mAb captured, ST2L-ECD in solution
[3] = biological target: T1, human ST2L extracellular domain with …; assay: SPR, mAb captured, ST2L-ECD in solution
[4] = biological target: T3, mouse ST2L extracellular domain; assay: domain binding assay
Procedure: (§1) Antibody binding to ST2L domain I, II and III was determined using standard capture ELISA assay using electrochemiluminescent detection format (Meso-Scale Discovery (MSD) technology). 10 μg/mL of each antibody was coated onto each well of an MSD HighBind plate (5 μL/well) for 2 hr at room temperature. […] The plate was covered with aluminum foil and incubated for 1 hr at room temperature with gentle shaking. The plate was then washed 3 times with HEPES wash buffer. MSD read buffer (150 μl) was added to each well, and the plate was then read using an MSD Sector Imager 6000.

[5] = biological target: T1, human ST2L extracellular domain with …; assay: MSD competition on coated ST2L-ECD; 30 nM sulfo-tag labeled C2244 Fab displaced by unlabeled competitor
Procedure: Competition binding assays were performed to evaluate different binding epitope groups for anti-ST2L mAbs. 5 μl (10 μg/ml) of ST2L-ECD protein was coated on MSD HighBind plate (Meso Scale Discovery, Gaithersburg, Md.) per well for 2 hr at room temperature. One-hundred and fifty microliters of 5% MSD Blocker A buffer (Meso Scale Discovery, Gaithersburg, Md.) was added to each well and incubated for 2 hr at room temperature. Plates were washed three times with 0.1 M HEPES buffer, pH 7.4, followed by the addition of the mixture of the MSD fluorescence dye (sulfo tag, NHS ester) labeled individual anti-ST2L antibody with different competitors. Labeled antibody, 10 or 30 nM, was incubated with increasing concentrations of competitor antibodies, from 1 nM to 2 or 5 μM, and then added to the designated wells in a volume of 25 μL mixture. After 2-hour incubation with gentle shaking at room temperature, plates were washed 3 times with 0.1M HEPES buffer (pH 7.4). MSD Read Buffer T was diluted with distilled water (4-fold) and dispensed at a volume of 150 μL/well and analyzed with a SECTOR Imager 6000.

[6] = biological target: T3, mouse ST2L extracellular domain; assay: immunosorbent assay with ECL detection, human-mouse domain-swap constructs
Procedure: as §1

[7] = biological target: T1, human ST2L extracellular domain with …; assay: as above
Procedure: as §1

[8] = biological target: T2, cynomolgus (Macaca fascicularis) ST2L …; assay: ProteOn SPR, mAb captured, ST2L-ECD in solution
Procedure: (§2) The affinities were analyzed by ProteOn. The experiments were performed at 25° C. using ProteOn's PBS-T-E buffer (PBS, 0.005% P20 and 3 mM EDTA) as running buffer. […] Mab capture was followed by injection of ST2L-ECD from 0.024-15 nM (5-fold dilutions) for 4 min (200 μL at 50 μL/min). The dissociation was monitored for 30 minutes for all reaction. Regeneration was performed using two 15 sec pulses of 10 mM glycine pH1.5. The data was fitted to a 1:1 with baseline drift model.
(§3) Association rates for the samples are fast, the langmuir with mass transfer model was used for curve fitting and estimation of Affinity. All of the samples had faster off rates than the parental clone and control Mab. The difference in off rate was the primary contributor to the lower affinity of the HFA variants when compared to the parent antibody.

[9] = biological target: T1, human ST2L extracellular domain with …; assay: ProteOn SPR, mAb captured, ST2L-ECD in solution
Procedure: as §2, §3

[10] = biological target: T1, human ST2L extracellular domain with …; assay: RLB ELISA: biotinylated IL-33 on coated huST2L-ECD, antibody titrated; tested as a hybridoma
[11] = biological target: T4, human ST2L, full length, on cells; assay: cell-based or functional assay
[12] = biological target: T1, human ST2L extracellular domain with …; assay: Fab binding to ST2L, method not detailed; parent C2494 Fab, without the D101aA substitution
[13] = biological target: T1, human ST2L extracellular domain with …; assay: Fab binding to ST2L, method not detailed

Binder	Kd [2] [nM]	koff [2] [s⁻¹]	kon [2] [M⁻¹ s⁻¹]	Kd [3] [nM]	koff [3] [s⁻¹]	kon [3] [M⁻¹ s⁻¹]	further results
STLM189 (antibody, V domains shown, C2494 HFA mAb: VH STLH195 + VL STLL278 (L2)) VH: QVQLVQSGAEVKKPGASVKVSCKVSAFNIKDDYMHWVRQAPGKGLEWMGRIDPAIGNTEYAPKFQDRVTMTEDTSTDTAYMELSSLRSEDTAVYYCATGDFYAMDYWGQGTLVTVSS VL: EIVMTQSPATLSVSPGERATLSCITNTDIDDVIHWYQQKPGQAPRLLIYEGNTLRPGIPARFSGSGSGTEFTLTISSLQSEDFAVYYCLQSDNMLTFGQGTKLEIK							binding result [1]: binds
ST2M49 (antibody, V domains shown, Phage-derived Fab converted to IgG) VH: EVQLVQSGAEVKKPGESLKISCKGSGYSFTSYWIGWVRQMPGKGLEWMGIIYPGDSYTRYSPSFQGQVTISADKSISTAYLQWSSLKASDTAMYYCARIGGMFDYWGQGTLVTVSS VL: EIVLTQSPATLSLSPGERATLSCRASQSVANALAWYQQKPGQAPRLLIYKASNRATGIPARFSGSGSGTDFTLTISSLEPEDFAVYYCQQYYGWPITFGQGTKVEIK	0.266	0.0124	4.66e+07	0.101	0.000161	1.59e+06	binding result [4]: binds
ST2M51 (antibody, V domains shown, Phage-derived Fab converted to IgG) VH: QVQLVQSGAEVKKPGSSVKVSCKASGGTFSSYAISWVRQAPGQGLEWMGGIIPIFGTANYAQKFQGRVTITADESTSTAYMELSSLRSEDTAVYYCARDTPQLDYWGQGTLVTVSS VL: not shown	0.076	0.00336	4.42e+07	0.038	4.87e-05	1.29e+06	binding result [4]: binds
STLM15 (antibody, human IgG2, V domains shown, Mouse hybridoma C2244 cloned into human IgG2 background (STLM15); also called C2244) VH: EVQLQESGPGLVKPSQSLSLTCTVTGFSITSDYAWNWIRQFPGSKLEWMGFISYSGDTSFNPSLKSRISVTRDTSKNQFFLQLNSVTTEDTATYYCASYDGYSFDYWGQGTTLTVSS VL: DIVLTQSPASLAISLGQRATISCRASKSVSTSGSSYMFWYQQKPGQPPKLLIYLASNLESGVPARFSGSGSGTDFTLNIHPVEEEDAAAYYCQHSREIPYTFGGGTKLEIK	0.011	5.3e-05	4.81e+06	0.042	4.25e-05	1.02e+06	IC50 (read off the curve) [5]: ~90 nM
CNTO3914 (antibody, mouse IgG1, V domains shown, Rat hybridoma C1999 V regions cloned into mouse IgG1 background; also called C1999) VH: EVQLVESGGGLLQPGRSLKLSCTASGFIFSHYGMAWVRQAPTKGLEWVSSIITDGTSTYYRDSVKGRFTISRDNAKNTQYLQMDSLRSEDTATYYCARQSDDYFDYWGQGVMVTVSS VL: DVVLTQTPVSLSVTLGDQASISCKSSQSLEYSDGDSYLEWYLQKPGQSPQLLIYGVSNRFSGVPDRFIGSGSGTDFTLKISRVEPEDLGVYYCFQATHDPFTFGSGTKLEIK							binding result [6]: binds; binding result [7]: no binding
STLM62 (antibody, human IgG2, V domains shown, Mouse hybridoma C2494 cloned into human IgG2 background (STLM62); also called C2494) VH: EVQLQQSVAELVRPGASVKLSCTASAFNIKDDYMHWVKQRPEQGLEWIGRIDPAIGNTEYAPKFQDKATMTADTSSNTAYLQLSSLTSEDTAVYYCALGDFYAMDYWGQGTSVTVSS VL: ETTVTQSPASLSVATGEKVTIRCITNTDIDDVIHWYQQKPGEPPKLLISEGNTLRPGVPSRFSSSGYGTDFVFTIENTLSEDVADYYCLQSDNMLTFGAGTKLELK	0.012	0.000539	4.51e+07	0.028	0.000119	4.26e+06	Kd [8]: 0.0123 nM; koff [8]: 0.000457 s⁻¹; kon [8]: 3.84e+07 M⁻¹ s⁻¹; Kd [9]: 0.00867 nM; koff [9]: 0.000159 s⁻¹; kon [9]: 1.84e+07 M⁻¹ s⁻¹; IC50 (read off the curve) [5]: ~100 nM; IC50 [10]: 0.7 µg/mL; RGA IC50 [11]: 0.11 µg/mL
C2494 Fab (Fab, V domains shown) VH: EVQLQQSVAELVRPGASVKLSCTASAFNIKDDYMHWVKQRPEQGLEWIGRIDPAIGNTEYAPKFQDKATMTADTSSNTAYLQLSSLTSEDTAVYYCALGDFYAMDYWGQGTSVTVSS VL: ETTVTQSPASLSVATGEKVTIRCITNTDIDDVIHWYQQKPGEPPKLLISEGNTLRPGVPSRFSSSGYGTDFVFTIENTLSEDVADYYCLQSDNMLTFGAGTKLELK							koff [12]: 0.000143 s⁻¹
C2494 Fab with D101aA (Chothia) substitution in VH (Fab, V domains shown) VH: EVQLQQSVAELVRPGASVKLSCTASAFNIKDDYMHWVKQRPEQGLEWIGRIDPAIGNTEYAPKFQDKATMTADTSSNTAYLQLSSLTSEDTAVYYCALGDFYAMAYWGQGTSVTVSS VL: ETTVTQSPASLSVATGEKVTIRCITNTDIDDVIHWYQQKPGEPPKLLISEGNTLRPGVPSRFSSSGYGTDFVFTIENTLSEDVADYYCLQSDNMLTFGAGTKLELK							fold decrease of koff against C2494 [13]: ~4 fold

Reference: patent publication US20170066831A1 (Janssen / Centocor, published 2017)
